Measurements reported in patent US10005846B2, “Anti-transglutaminase 2 antibodies” (MEDICAL RESEARCH COUNCIL TECHNOLOGY, priority 2012, dated 2018).

Tests used:
[1] = target: T1, HepG2 cell lysate proteins (Homo sapiens, UniProt P21980); assay: Western blot of HepG2 lysate immunoprobed with AB1; assay type: binding; conditions: 25 μg of lysate
T1 construct: endogenous in cells; host or cells: HepG2
T1 sequence (P21980 1-687): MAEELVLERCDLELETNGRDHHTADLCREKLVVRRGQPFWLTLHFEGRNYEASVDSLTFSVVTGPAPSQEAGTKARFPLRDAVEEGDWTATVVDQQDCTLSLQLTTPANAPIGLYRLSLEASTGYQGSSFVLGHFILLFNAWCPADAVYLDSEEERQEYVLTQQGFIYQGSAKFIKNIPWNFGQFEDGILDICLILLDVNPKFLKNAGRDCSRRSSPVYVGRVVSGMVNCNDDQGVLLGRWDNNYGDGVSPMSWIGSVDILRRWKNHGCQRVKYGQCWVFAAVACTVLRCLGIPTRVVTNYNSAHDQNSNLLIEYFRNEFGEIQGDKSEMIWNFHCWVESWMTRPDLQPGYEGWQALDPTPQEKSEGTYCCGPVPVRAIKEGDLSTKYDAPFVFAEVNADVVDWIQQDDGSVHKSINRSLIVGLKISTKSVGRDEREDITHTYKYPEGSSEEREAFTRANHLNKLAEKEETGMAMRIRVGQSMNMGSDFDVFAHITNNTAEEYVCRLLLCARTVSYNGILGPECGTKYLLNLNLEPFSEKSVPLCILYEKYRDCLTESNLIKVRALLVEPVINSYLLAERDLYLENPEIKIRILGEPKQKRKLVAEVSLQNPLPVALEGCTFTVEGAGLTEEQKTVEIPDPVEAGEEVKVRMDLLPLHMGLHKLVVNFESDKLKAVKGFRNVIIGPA
Experimental: B: HepG2 cells were exposed to increasing glucose concentrations for 96 hours to up regulate TG2 expression. Cells were harvested, lysed and 25 ug of lysate fractionated by SDS-PAGE, western blotted and then immunoprobed with a 1 ng/ml solution of AB1 IgG using a chemiluminesant end point.
Confirmation of TG2 core protein synthesis as well as TG2 and TG2 core reactivity levels following immunisation were all measured by western blotting. Recombinant proteins (10 to 80 ng) were loaded on a 10% (w/v) polyacrylamide denaturing or non-denaturing gel as required and transferred onto PVDF membranes (Transblot SD, Biorad, UK) for one hour at 100 V. Membranes were blocked overnight at 4° C. with 3% (w/v) BSA in TBS/0.1% (v/v) Tween 20. The membranes were then washed and probed with monoclonal mouse anti-transglutaminase antibodies in TBS/Tween containing 1% BSA. For proof of recombinant TG2 core protein and as a positive control for antibody screening the commercial antibody Cub7402 (neomarkers) was used at a 1:1000 dilution. Binding of primary antibody was detected with the anti-mouse gamma-chain-HRP linked secondary antibody (Sigma, Poole, UK). Bands were visualised using ECL chemiluminescent detection system (Amersham, UK).

human TG2 = target: T2, human TG2 (Homo sapiens, UniProt P21980); assay: 3H-putrescine incorporation TG activity assay with recombinant human TG2; assay type: biochemical
T2 sequence (P21980 1-687): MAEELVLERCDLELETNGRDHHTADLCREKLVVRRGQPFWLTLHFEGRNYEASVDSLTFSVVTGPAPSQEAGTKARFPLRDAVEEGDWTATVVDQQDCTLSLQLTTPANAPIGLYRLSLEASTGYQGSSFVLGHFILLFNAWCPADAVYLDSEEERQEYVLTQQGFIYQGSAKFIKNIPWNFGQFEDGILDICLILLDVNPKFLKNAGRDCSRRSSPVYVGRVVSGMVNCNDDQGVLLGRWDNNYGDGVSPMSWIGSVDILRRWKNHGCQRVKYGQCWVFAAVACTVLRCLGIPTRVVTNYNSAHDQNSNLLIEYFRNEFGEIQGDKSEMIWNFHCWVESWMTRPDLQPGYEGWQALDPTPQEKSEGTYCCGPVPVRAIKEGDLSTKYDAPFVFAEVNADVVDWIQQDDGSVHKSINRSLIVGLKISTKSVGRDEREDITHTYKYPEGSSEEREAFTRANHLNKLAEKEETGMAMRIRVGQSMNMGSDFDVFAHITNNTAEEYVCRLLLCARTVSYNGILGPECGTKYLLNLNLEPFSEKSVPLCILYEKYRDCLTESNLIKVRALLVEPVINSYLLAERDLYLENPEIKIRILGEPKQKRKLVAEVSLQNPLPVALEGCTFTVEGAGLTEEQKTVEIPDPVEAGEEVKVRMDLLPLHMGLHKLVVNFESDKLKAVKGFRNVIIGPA
Experimental: To determine an IC50 value for each antibody against human, rat and mouse the ^3H Putrescine assay was used. 100 ng of human TG2 or 25 ng of mouse and rat TG2 was used to generate a reaction where approximately 3000 cpm of Putrescine were incorporated per hour in 10 ul of the reaction mixture. Serial dilutions of each antibody were then applied starting from adding 500 ng (5 ug/ml final concentration) to the reaction mixture and incubated with the TG2 for 20 minutes prior to activating the reaction. IC50 values were calculated by determining the concentration at which the enzymatic rate of reaction was reduced by 50% using an appropriate curve fit in graphpad prism. Values are expressed as the amount of IgG in […] in the reaction that would inhibit 1 ng of TG2.
TG activity is measured by the Ca^2+ dependent incorporation of ^3H-putrescine into N′,N′-dimethylcasein. Recombinant human TG2 (100 ng) was pre-incubated for twenty minutes at room temperature with the test sample (conditioned medium or purified IgG) before starting the reaction. Twenty-five μl of reaction mix (5 μl of 25 mM CaCl2, 5 μl of 40 mM dithiothreitol, 5 μl ^3H-putrescine mix, and 10 μl 25 mg/ml of N,N′ dimethylcasein (replace 25 mM CaCl2 with 100 mM EDTA for a non-enzymatic control) was added to start the reaction and the samples incubated at 37° C. for up to 1 hour. Aliquots of 10 μl were spotted onto a strip of 3 MM Whatman filter paper and plunged immediately into ice-cold 10% trichloroacetic acid (TCA) in order to precipitate the cross-linked proteins typically at time 0, 10, 30 and 60 minutes into the reaction. After three extensive washes in ice-cold 5% TCA followed by 3 rinses with ice-cold 95% ethanol, the air dried filter was counted in 2 ml of scintillation fluid (Ultima Gold Packard, Perkin Elmer). The rate of reaction was calculated. 1 TG unit is equivalent to the incorporation of 1 nmol of putrescine per hour at 37° C.

[2] = target: T3, extracellular TG2 in human HK-2 cells (Homo sapiens, UniProt P21980); assay: Extracellular TG activity in HK-2 cells, biotin cadaverine incorporation into fibronectin (Example 1); assay type: cell-based
T3 construct: endogenous in cells; host or cells: HK-2 (kidney proximal tubular epithelium)
T3 sequence (P21980 1-687): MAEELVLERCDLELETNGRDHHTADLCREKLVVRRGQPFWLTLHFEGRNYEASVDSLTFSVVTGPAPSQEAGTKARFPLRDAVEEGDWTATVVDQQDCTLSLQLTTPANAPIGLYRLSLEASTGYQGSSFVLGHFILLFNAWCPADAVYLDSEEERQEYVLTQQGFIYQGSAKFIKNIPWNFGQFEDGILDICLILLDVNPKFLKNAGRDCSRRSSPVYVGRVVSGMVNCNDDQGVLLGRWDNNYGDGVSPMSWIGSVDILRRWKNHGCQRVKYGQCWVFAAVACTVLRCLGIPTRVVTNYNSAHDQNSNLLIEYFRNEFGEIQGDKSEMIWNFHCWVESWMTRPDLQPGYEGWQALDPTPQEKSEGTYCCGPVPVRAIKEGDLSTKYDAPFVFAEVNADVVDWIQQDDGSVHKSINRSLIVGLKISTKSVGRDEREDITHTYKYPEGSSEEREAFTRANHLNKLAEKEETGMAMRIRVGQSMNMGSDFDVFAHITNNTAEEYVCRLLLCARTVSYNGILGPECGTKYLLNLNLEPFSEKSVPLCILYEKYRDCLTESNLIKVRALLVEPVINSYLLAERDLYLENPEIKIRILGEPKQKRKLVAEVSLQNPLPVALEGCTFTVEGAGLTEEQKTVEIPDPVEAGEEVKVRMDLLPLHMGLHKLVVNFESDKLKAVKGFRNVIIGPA
Experimental: HK2 cells were plated onto fibronectin and incubated for 2 hours in the presence of 0.1M biotin cadaverine with either 4 ng/μl of human anti-TG2 antibody (AB1) (part A), 4 ng/μl of human anti-TG2 antibody (DC1) (part B) or 400 μM of the site-specific pan TG inhibitor 1,3-Dimethyl-2-[(2-oxo-propyl)thio]imidazolium chloride. […] Changes in optical density were measured at 450 nm in a 96 well plate reader. Data represents mean OD at 450 nm corrected to 1 mg of cell protein. n=6 wells per experimental group.
Extracellular TG activity was measured by modified cell ELISA. HK-2 epithelial cells were harvested using 0.1M EDTA or 0.25% trypsin/EDTA and plated at a density of 8×10^4 cells/well in serum free medium onto a 96 well plate that had been coated overnight with 100 μl/well of fibronectin (5 μg/ml in 50 mM Tris-HCl pH 7.4) (Sigma, Poole UK). Cells were allowed to attach for 2.5 h at 37° C. in the presence of the 0.1 mM biotin cadaverine [N-(5 amino pentyl biotinamide) trifluoroacetic acid] (Molecular Probes, Eugene Oreg., USA). Plates were washed twice with 3 mM EDTA/PBS and cells removed with 0.1% (w/v) deoxycholate in 5 mM EDTA/PBS. The supernatant was collected and used for protein determination. […] The reaction was stopped with 50 μl 2.5 M H2SO4 and the absorbance read at 450 nm.

[3] = target: T4, TG2 activity in HepG2 cell homogenate (Homo sapiens, UniProt P21980); assay: 3H putrescine incorporation TG activity assay in HepG2 cell homogenate; assay type: biochemical
T4 construct: endogenous in cells; host or cells: HepG2
T4 sequence (P21980 1-687): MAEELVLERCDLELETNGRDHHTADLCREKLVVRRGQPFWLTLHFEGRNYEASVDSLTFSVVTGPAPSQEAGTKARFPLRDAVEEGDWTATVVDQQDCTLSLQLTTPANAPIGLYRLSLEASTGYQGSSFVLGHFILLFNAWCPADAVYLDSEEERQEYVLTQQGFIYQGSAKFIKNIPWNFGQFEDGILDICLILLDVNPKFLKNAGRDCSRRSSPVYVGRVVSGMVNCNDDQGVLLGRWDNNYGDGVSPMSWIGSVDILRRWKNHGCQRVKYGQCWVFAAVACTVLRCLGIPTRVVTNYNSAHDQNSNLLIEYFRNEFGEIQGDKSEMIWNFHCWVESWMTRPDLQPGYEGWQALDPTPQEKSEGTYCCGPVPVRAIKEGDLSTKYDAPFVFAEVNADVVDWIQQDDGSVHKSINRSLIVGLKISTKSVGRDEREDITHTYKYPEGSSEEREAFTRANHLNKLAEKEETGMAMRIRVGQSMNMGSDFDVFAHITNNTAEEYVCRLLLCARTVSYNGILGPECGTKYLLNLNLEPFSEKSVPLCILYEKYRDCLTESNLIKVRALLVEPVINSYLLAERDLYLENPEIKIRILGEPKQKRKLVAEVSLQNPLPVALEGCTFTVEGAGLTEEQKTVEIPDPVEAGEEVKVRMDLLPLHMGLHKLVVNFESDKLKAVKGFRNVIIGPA
Experimental: A: Hep2G cells were lysed and 45 ug of protein mixed with 750 ng of IgG from AB1, DH2, DD9, BB7, DC1 and EH6 for 20 minutes. This was subsequently assayed using the ^3H Putrescine incorporation TG activity assay with sampling over 1 hour. The rate of reaction was calculated and expressed as a percentage of the same lysate incubated with a random antibody (MAB002). Data represents the mean percentage inhibition ±SEM from 2 separate experiments done in duplicate. *p<0.05
HepG2 cells were kindly supplied by Richard Ross (University of Sheffield). Cells were routinely grown at 37° C. in a 95% humidified atmosphere of 5% CO2 in DMEM/4.5 g per liter glucose supplemented with 10% foetal calf serum (FCS), 100 IU penicillin and 100 μg/ml streptomycin, 2 mM I-glutamine (all GIBCO). Two million cells were seeded on a 10 cm dishes and grown for 48 hours. Cells were lysed in 250 μl of STE buffer (0.32M sucrose, 5 mM Tris, 1 mM EDTA containing protease inhibitors Phenylmethylsulphonyl fluoride (1 mM), benzamidine (5 mM), and leupeptin (10 μg/ml) and sonicated on ice to produce a cell lysate usable in TG2 activity assay.
The same protocol was used to assess TG inhibition in cell lysates by replacing the 25 μl of recombinant protein with 25 μl of cell lysate.

off target association in HepG2 lysate [1]: no off target association
IC50 against human TG2 (human TG2; amount of IgG in the reaction that would inhibit 1 ng of TG2, 100 ng human TG2): 0.011 µg/mL
hybridoma supernatant ability to inhibit TG2 activity (human TG2; initial screen of conditioned medium, 100 ng of TG2): able to inhibit TG2 activity
inhibition of extracellular TG activity ([2]; 4 ng/ul in the culture media): 60%
inhibition of extracellular TG2 in human HK-2 cells (in words) ([2]; applied to the culture media): able to inhibit TG2 successfully
inhibition of TG2 in human Hep2G cells (in words) [3]: able to inhibit TG2 successfully
inhibition of TG2 activity in HepG2 homogenate ([3]; 0.5 μg of antibody, 45 ug lysate protein): 70%
B1: AB1: murine monoclonal anti-TG2 IgG, Group 1 (epitope amino acids 304 to 326); VH and VK in FIGS. 7 and 18 (antibody, V domains shown)
VH: EVQLVESGGGLVKPGGSLKLSCAASGFTLSSSAMSWVRQTPDRRLEWVATISVGGGKTYYPDSVKGRFTISRDNAKNTLYLQMNSLRSEDTAMYYCAKLISLYWGQGTTLTVSS
VL: DIKMTQSPSSMYASLGERVTITCKASQDINSYLTWFQQKPGKSPKTLIYRTNRLFDGVPSRFSGSGSGQDFFLTISSLEYEDMGIYYCLQYDDFPYTFGGGTKLEIK
